Assay [1] addresses p130Cas (Y362) (Homo sapiens) (UniProt P56945). Conditions: cited from earlier work.
For assay [2], the target named is FGFR3 (Y760) phosphopeptide STDEpYLDLSAP, Rhodamine B-labelled. In words: fluorescence polarisation; Rhodamine B-labelled peptide in solution with SH2 domain; Beacon 2000; as previously described [40].
The target of assay [3] is p62DOK1 (Y398) phosphopeptide KEEGpYELPYNP, Rhodamine B-labelled. The assay is described as above.
The target of assay [4] is IRS-1 (Y1179) phosphopeptide NGLNpYIDLDLV, Rhodamine B-labelled. The assay is described as above.
Assay [5] concerns the target IRS-1 (Y896) phosphopeptide SPGEpYVNIEFG, Rhodamine B-labelled. The assay is described as above.
For assay [6], the target named is p130Cas (Y362) phosphopeptide AEDVpYDVPPPA, Rhodamine B-labelled. The assay is described as above.
The target of assay [7] is FGFR1 (Y463) phosphopeptide GVSEpYELPEDP, Rhodamine B-labelled. Described as above.
Assay [8] deals with ShcA (Y426) (Homo sapiens) (UniProt P29353). Conditions: cited from earlier work.
ShcA (Y426) (Homo sapiens), sequence (P29353 whole entry, looked up): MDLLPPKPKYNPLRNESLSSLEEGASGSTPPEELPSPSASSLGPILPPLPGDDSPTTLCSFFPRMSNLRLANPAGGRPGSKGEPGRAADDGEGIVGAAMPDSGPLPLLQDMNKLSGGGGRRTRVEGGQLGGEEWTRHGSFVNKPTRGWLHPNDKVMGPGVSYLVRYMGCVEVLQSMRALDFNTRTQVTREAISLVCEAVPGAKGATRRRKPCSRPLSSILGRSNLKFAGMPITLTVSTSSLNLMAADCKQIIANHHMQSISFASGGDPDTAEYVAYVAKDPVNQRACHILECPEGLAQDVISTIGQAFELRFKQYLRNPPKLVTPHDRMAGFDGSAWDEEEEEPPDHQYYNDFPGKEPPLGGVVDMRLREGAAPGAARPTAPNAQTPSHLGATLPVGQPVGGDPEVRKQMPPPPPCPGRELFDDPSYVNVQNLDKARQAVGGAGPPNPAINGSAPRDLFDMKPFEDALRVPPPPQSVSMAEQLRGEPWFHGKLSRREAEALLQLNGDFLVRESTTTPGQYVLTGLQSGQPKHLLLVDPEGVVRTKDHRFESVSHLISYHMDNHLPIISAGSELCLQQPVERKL
Assay [9] has as its target IRS-1 (Y896) (Homo sapiens) (UniProt P35568). The conditions noted are these: cited from earlier work.
Assay [10] has as its target IRS-1 (Homo sapiens) (UniProt P35568). The conditions noted are these: cited from earlier work.
The target of assay [11] is B3AT (Y921) (Homo sapiens) (UniProt P02730). The conditions noted are these: cited from earlier work.
Assay [12] addresses PDGFRb (Y1021) (Homo sapiens) (UniProt P09619). Conditions: cited from earlier work.
For assay [13], the target named is IRS-1 (Y1179) (Homo sapiens) (UniProt P35568). The conditions noted are these: cited from earlier work.
IRS-1 (Y1179) (Homo sapiens), sequence (P35568 whole entry, looked up): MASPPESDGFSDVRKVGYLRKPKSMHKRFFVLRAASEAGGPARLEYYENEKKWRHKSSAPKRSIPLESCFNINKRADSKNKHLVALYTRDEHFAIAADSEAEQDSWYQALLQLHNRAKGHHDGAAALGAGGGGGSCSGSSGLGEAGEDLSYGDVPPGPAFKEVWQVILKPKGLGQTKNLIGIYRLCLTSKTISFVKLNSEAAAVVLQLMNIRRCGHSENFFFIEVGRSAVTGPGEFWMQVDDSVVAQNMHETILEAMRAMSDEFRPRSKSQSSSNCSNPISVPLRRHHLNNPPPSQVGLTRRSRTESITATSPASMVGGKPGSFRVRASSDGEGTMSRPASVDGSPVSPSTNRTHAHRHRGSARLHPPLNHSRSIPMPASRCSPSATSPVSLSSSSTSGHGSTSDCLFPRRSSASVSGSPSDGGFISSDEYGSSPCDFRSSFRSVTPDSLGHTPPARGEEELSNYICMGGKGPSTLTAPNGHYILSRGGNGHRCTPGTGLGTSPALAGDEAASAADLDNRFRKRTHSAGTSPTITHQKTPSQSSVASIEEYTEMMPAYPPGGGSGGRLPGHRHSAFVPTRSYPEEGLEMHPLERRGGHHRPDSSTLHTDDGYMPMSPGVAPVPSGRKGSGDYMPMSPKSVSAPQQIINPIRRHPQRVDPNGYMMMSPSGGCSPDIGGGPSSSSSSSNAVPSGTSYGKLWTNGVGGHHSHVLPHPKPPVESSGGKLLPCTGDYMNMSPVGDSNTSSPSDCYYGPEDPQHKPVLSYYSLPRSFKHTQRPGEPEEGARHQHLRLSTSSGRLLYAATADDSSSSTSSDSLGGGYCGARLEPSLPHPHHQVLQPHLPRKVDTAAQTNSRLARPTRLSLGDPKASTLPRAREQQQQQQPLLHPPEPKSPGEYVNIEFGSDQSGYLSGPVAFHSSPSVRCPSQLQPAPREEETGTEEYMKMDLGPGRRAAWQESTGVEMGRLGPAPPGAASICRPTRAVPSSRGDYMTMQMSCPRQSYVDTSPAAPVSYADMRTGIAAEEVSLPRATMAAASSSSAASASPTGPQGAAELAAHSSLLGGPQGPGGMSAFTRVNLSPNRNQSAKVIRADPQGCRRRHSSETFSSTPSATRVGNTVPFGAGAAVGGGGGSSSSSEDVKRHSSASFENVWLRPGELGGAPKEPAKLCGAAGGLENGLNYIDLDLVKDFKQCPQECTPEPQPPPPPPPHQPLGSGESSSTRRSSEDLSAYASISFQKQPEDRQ
Assay [14] addresses IRS-1 (Y1012) (Homo sapiens) (UniProt P35568). The conditions noted are these: cited from earlier work.
The target in assay [15] is CD150 (Y142) (Homo sapiens) (UniProt P20963). The conditions noted are these: cited from earlier work.
CD150 (Y142) (Homo sapiens), sequence (P20963 whole entry, looked up): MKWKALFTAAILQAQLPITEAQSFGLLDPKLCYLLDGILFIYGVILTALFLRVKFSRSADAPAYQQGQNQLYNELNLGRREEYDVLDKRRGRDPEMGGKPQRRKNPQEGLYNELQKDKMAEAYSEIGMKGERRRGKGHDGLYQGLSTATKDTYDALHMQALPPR
In assay [16] the target is p130Cas (Y664) (Homo sapiens) (UniProt P56945). The conditions noted are these: cited from earlier work.
p130Cas (Y664) (Homo sapiens), sequence (P56945 whole entry, looked up): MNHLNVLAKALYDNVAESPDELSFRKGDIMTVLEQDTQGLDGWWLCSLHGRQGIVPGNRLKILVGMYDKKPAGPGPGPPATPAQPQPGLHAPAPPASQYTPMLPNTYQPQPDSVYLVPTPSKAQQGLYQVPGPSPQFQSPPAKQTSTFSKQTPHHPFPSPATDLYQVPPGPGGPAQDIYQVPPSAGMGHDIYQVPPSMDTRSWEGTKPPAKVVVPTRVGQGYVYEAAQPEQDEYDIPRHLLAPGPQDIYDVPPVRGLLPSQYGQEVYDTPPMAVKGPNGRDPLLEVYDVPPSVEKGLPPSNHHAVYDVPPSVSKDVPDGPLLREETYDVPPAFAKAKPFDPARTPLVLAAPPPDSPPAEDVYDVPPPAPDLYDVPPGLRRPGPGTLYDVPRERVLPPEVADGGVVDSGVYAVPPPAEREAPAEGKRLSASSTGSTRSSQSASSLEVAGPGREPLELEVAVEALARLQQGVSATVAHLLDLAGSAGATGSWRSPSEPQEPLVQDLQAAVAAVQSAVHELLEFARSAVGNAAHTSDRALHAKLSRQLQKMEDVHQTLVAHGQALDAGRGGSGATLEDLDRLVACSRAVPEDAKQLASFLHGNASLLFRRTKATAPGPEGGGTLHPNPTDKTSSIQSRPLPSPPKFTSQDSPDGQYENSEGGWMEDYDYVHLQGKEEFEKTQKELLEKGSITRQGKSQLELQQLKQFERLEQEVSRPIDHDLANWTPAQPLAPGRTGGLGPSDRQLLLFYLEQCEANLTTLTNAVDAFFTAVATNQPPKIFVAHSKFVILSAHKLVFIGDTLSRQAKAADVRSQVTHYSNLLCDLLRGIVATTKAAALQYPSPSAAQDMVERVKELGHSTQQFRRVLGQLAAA

Results on 13 substances are retold here after paper PMC3514216, “SRC Homology 2 Domain Binding Sites in Insulin, IGF-1 and FGF receptor mediated signaling networks reveal an extensive potential interactome” (Cell Communication and Signaling : CCS, 2012).

pKd: −log10 of the molar value. Several values for one entry are separate records, joined by “and”; a condition that tells them apart may be missing. Identical values can stand only once.

Grb2 SH2, sequence (P62993 57-155): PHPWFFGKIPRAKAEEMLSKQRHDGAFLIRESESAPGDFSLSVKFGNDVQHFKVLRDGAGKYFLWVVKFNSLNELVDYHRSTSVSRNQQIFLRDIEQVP
PDGFRb (Y1021) (Homo sapiens), sequence (P09619 whole entry, looked up): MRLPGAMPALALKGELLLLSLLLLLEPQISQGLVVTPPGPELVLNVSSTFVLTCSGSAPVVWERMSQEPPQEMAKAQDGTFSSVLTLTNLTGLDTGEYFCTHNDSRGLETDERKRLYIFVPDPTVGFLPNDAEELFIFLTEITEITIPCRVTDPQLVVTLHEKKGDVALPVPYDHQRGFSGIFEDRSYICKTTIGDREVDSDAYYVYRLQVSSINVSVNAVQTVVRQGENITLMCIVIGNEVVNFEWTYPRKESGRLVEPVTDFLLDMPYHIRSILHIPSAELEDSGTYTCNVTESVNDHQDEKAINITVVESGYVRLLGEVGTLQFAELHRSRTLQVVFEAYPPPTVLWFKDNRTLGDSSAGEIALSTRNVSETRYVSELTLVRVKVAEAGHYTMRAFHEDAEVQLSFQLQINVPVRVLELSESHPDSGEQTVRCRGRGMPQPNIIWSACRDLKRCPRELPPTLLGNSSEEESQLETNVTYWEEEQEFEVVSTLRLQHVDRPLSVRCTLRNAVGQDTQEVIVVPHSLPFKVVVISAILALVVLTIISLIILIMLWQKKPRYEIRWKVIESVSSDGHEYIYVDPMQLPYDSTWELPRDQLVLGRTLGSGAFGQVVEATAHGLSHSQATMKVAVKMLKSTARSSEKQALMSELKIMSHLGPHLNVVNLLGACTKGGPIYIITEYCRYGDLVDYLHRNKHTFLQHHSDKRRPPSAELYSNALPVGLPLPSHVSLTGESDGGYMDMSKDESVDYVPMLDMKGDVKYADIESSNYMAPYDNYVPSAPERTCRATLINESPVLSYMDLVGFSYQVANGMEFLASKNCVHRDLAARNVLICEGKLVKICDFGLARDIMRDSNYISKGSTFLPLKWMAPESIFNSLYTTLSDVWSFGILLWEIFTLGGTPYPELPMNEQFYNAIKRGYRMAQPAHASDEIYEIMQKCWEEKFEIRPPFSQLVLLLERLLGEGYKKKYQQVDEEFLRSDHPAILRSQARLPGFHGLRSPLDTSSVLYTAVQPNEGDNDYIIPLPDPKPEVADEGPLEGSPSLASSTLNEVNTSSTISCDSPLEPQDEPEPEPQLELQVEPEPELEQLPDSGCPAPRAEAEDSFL
Plcγ-C SH2 (C-terminal), sequence (P19174 668-756): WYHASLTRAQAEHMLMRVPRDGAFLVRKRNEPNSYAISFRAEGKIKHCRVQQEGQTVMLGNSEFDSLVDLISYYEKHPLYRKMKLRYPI
Crk SH2, sequence (P46108 10-121): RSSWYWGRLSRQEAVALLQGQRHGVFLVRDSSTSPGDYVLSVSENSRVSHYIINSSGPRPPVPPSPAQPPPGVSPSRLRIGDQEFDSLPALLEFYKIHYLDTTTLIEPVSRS
p130Cas (Y362) (Homo sapiens), sequence (P56945 whole entry, looked up, the tested form may be a part): as the sequence (P56945 whole entry, looked up) above
Shc1 SH2, sequence (P29353 485-582): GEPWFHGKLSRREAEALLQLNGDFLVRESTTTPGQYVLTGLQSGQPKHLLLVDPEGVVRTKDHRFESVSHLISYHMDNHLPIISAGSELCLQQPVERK
IRS-1 (Y1012) (Homo sapiens), sequence (P35568 whole entry, looked up): as the sequence (P35568 whole entry, looked up) above
IRS-1 (Y896) (Homo sapiens), sequence (P35568 whole entry, looked up): as above
IRS-1 (Homo sapiens), sequence (P35568 whole entry): as the sequence (P35568 whole entry, looked up) above

As to Crk SH2 (from UniProt P46108), the pKd in [1] is 6.26.

For the substance “GST-PI3K1_C SH2 domain (domain or fragment)”, the values for the pKd in [2] and in assay [3] were 5.67 and 4.89, respectively.

“GST-PI3K1_N SH2 domain (domain or fragment)”: the results for the pKd in assay [4], in assay [5] and in assay [3] were 4.82, 5.57 and 5.73, respectively.

For “GST-Ptpn11_N SH2 domain (domain or fragment)”, the pKd in assay [5] is 5.68; in [2] it was 4.60; in assay [3], < 4.30; in assay [6] it was < 4.30.

For “GST-Rasa1_C SH2 domain (domain or fragment)”, the pKd was < 4.77 in assay [2], < 4.77 in assay [7] and 5.86 in assay [3].

As to “GST-Rasa1_N SH2 domain (domain or fragment)”, the pKd in assay [3] was 6.39.

For Grb2 SH2 (from UniProt P62993), the pKd in assay [8] is 7.64 and 7.28; in [9], 7.46; in assay [10], 7.46.

Consider Nck1 SH2 (from UniProt P16333), for which, in assay [11], the pKd is 7.22.

In the case of “Plcγ-C SH2 (C-terminal) (from UniProt P19174)”, the pKd in assay [12] is 5.39.

With “Ptpn11 tandem SH2 tandem SH2 (from UniProt Q06124)”, the pKd in [13] is 8.52.

Regarding “Ptpn11_N SH2 (N-terminal) (from UniProt Q06124)”, in [14], the pKd was 3.96.

Shc1 SH2 (from UniProt P29353): the pKd in [15] is 4.30.

Regarding Src SH2 (from UniProt P12931), the pKd in [16] is 7.46.
